From publication PMC11240955, “Stability Engineering of Recombinant Secretory IgA” (International Journal of Molecular Sciences, 2024) come the findings set out here.

The target of this assay is T1, receptor-binding domain (RBD) of the SARS-CoV-2 spike, R319-F541, with a C-terminal 6xHis-tag (SARS-CoV-2, UniProt P0DTC2).
T1 construct: also called RBD-His; not shown: His6, C-terminal, kept
The experiment in a line: ELISA. Conditions: both partners purified.

B1: COVA2-15 monomeric IgA2m(1)_D133C (antibody, V domains shown)
VH: QVQLLESGGGLVQPGGSLRLSCAASGFTFSSYAMSWVRQAPGKGLEWASAISGSGGSTYYADSVEGRFTISRDNSKNTLYLQMNSLRAEDTAVYYCAKDTGYCGDDCYIKLIRGGPDYWGQGTLVTVSS
VL: DIVMTQSPLSLPVTLGQPASISCRSSQSLVYSDGNTFLNWFQQRPGQSPRRLIYQVSNRDSGVPDRFSGSGSGTDFTLKISRVEAEDVGVYYCMQGTHWPRTFGQGTKLEIK
notes: no single major 160 kDa peak in SEC; also called COVA2-15 mIgA2m(1)_D133C; mIgA2m(1)_D133C; copies: 2 + 2
In the case of B1, the binding result is “binds”.
